Measurements published in article PMC7605794.

How the values were obtained:
Assay in all cases: ITC
[1] = biological target: T1, YRLFRK peptide (spike RBD) (SARS-CoV-2, UniProt P0DTC2)
T1 chain: YRLFRK

[2] = biological target: T2, HRFYRLAN peptide (RNA dependent RNA polymerase) (SARS-CoV-2, UniProt P0DTD1)
T2 chain: HRFYRLAN

[3] = biological target: T3, NRKRISN peptide (spike RBD) (SARS-CoV-2, UniProt P0DTC2)
T3 chain: NRKRISN

B1: BC 007 (structured_DNA)
DNA: GGTTGGTGTGGTTGG
- Kd [1]: 86.7 ± 1.2 µM
- Kd [2]: 54.7 ± 0.6 µM
- binding result [3]: no binding
